Columns and labels:
[1] = test system: insulin; assay: Plasma insulin after acute oral dosing in rats, Rat Insulin ELISA; type: in vivo; conditions: Rat Insulin ELISA kit; oral gavage
Procedure: Animals were treated and acutely dosed with various test articles as part of pharmacokinetic rodent experiments according to methods described herein. Unless otherwise stated all dosing was at 2.85 g/kg body weight. All treatment groups except for SEQID-00240 which had n=5 rats, and SEQID-00587 which had n=3, contained n=4 rats.
An Ultra-Sensitive Rat Insulin ELISA Kit was obtained from Crystal Chem, Inc. (Catalog number 90060, Downers Grove, IL). Plates were washed using a BioTek ELx50 microplate strip washer (BioTek, Winooski, VT). Absorbance was read on a Synergy Mx monochromator-based microplate reader (BioTek, Winooski, VT). Data was analyzed using Microsoft Excel version 14.0.7128.5000 (Microsoft Corporation, Redmond, WA) and GraphPad Prism version 6.03 for Windows (GraphPad Software, La Jolla, CA).
The ELISA kit was pre-warmed to room temperature for 30 minutes prior to beginning the assay set up. The standard curve dilutions were prepared in accordance with the manufacturer's instructions for running the assay in Wide Range format. […]
Anti-Insulin Enzyme Conjugate Working Solution was prepared by combining 2 volumes Anti-Insulin Enzyme Conjugate Stock with 1 volume Enzyme Conjugate Diluent, and mixing by pipetting up and down and gently vortexing. […] The absorbance was read on the Synergy Mx plate reader at 450 nm and 630 nm. […]

[2] = Rat pharmacokinetic studies, plasma amino acids by HPLC; conditions: oral administration to rats
Procedure: Rat pharmacokinetic studies. Male Sprague Dawley rats with indwelling jugular vein cannula (JVC) were purchased from Harlan Laboratories and acclimated to the Test Facility (Agilux Laboratories) for at least two days prior to study initiation. Prior to dose administration animals were fasted overnight (11-13 h) and remained fasted until completion of the study. Test articles were orally administered via a bulb-tipped 18 gauge stainless steel gavage needle attached to a syringe. The weight of all dose syringes were recorded prior to and following dosing to more accurately determine the amount of solution dosed. Serial blood samples (˜300 μL) were collected from the JVC at time 0 (pre-dose) and 0.25, 0.5, 1, 2, and 4 h post-dose. Blood samples were collected into tubes containing the anti-coagulant K2EDTA, a general protease inhibitor cocktail (Sigma P8340, diluted 1:100 in whole blood), and a DPP IV inhibitor (Millipore DPP4, diluted 1:100 in whole blood). Immediately following blood collection tubes were vortexed and stored on wet ice until processing to plasma by centrifugation (3,500 rpm at 5° C.) within 1 h of collection. Plasma samples were then transferred into new tubes and stored at −80° C.
The concentration of Glu, Ser, His, Gly, Thr, Arg, Ala, Tyr, Val, Met, Phe, Ile, Leu, and Lys in the plasma samples was determined by HPLC amino acid analysis, as described herein. Prior to HPLC amino acid analysis, insoluble particles were removed from plasma samples by centrifugation (1100×g at 4° C.) for 10 min. A 25 μL sample of the soluble fraction was then transferred to a 96-well plate, for some samples an internal standard (Norvaline, Agilent) was added to each plasma sample at final concentration of 0.5 mM.

[3] = pH solubility screen in Citric Acid / Dibasic Sodium Phosphate buffers; type: physicochemical
Procedure: pH Solubility. […] Protein was either lyophilized and then resuspended in buffer cocktail mixtures, or concentrated and then spiked into buffer cocktail mixtures at a final protein concentration of 5 to 30 mg/ml. As a control, protein was also dissolved in a solution of 8 M urea. Protein solutions were shaken for 10 min at room temperature. Turbidity of proteins was determined by measuring the absorbance of protein solutions at 650 nm. The protein solution was then centrifuged for 10 min at 1100×g to pellet undissolved or precipitated protein. The soluble protein fraction (supernatant) was sampled and protein concentration was measured by one or more of the following methods: Coomassie Plus Protein Assay (Pierce), Chip electrophoresis, gel electrophoresis, and/or absorbance at 280 nm. The pH range over which select proteins remained greater than 80% soluble as determined by Bradford and the A650 value are listed in Table E31C.

[4] = Intact half-life during simulated gastric fluid (SGF) digestion; conditions: SGF pH 1.5, pepsin:polypeptide 1:20 w/w, 37° C.; produced in E. coli unless otherwise noted
Procedure: Nutritive polypeptide half-life during simulated digestion. One metric for quantifying the breakdown of polypeptides from an intact form to smaller peptides is the intact half-life. In this experiment the nutritive polypeptide was exposed to a series of proteases that are active in the stomach (pepsin) and intestine (trypsin and chymotrypsin), and the presence of intact protein was measured over time. Specifically, the nutritive polypeptide was first treated at a concentration of 2 g/L with simulated gastric fluid (SGF) (0.03 M NaCl, titrated with HCl to pH 1.5 with a final pepsin: polypeptide ratio of 1:20 w/w) at 37° C. Time points were sampled from the reaction and quenched by addition of 0.2 M Na2CO3. […] Time points were sampled from the reaction and quenched by addition of Trypsin/Chymotrypsin Inhibitor (Sigma) solution until 240 min.
Time point samples were analyzed for intact protein by chip electrophoresis, polyacrylamide gel electrophoresis, or western blot. For chip electrophoresis (Labchip GX II), samples were analyzed using a HT Low MW Protein Express LabChip® Kit (following the manufacturer's protocol). A protein ladder was loaded every 12 samples for molecular weight determination (kDa) and quantification. For polyacrylamide gel electrophoresis, samples (1 μg) were separated on a NuPAGE® Novex® Bis-Tris Precast gel (Life Technologies) according to the manufacturer's protocol. The gel was stained using SimplyBlue™ SafeStain (Invitrogen) and imaged using a Chemidoc XRS+ (BioRad) or transferred onto nitrocellulose membranes using the iBlot® Dry Blotting System (Life Technologies) and iBlot® Western Detection Kit (Life Technologies) according to the manufacturer's protocol. Proteins were detected by blotting with Anti-His [C-term]-HRP antibody diluted 3:5000 in Blok™-PO Blocking Buffer using the SNAP i.d.® Protein Detection System (Millipore) according to the manufacturer's protocol. Blots were treated with Luminata Classico Western HRP Substrate (Millipore) according to the manufacturer's protocol and imaged using chemiluminescent detection on the Molecular Imager® Gel Doc™ XR+ System (Bio-Rad). Quantification of intact protein was determined by densitometry using ImageLab (BioRad). For all analysis methods the relative concentration of the polypeptide at each time point (if detected) was plotted overtime and fit to an exponential curve to calculate the intact half-life.
Specifically, the t=0 (enzyme-free control) and t=2 min samples from the SGF digest were analyzed for intact protein as described by chip electrophoresis, SDS-PAGE, western blot, and/or LC-MS/MS. Relative quantities of polypeptides at each time point were determined and the percentage of intact protein remaining at t=2 was determined.

SEQID-00240: nutritive polypeptide naturally produced in Cow, recombinantly expressed in E. coli (DLEGSLEQEKKLRMDLERAKRKLEGDLKLAQESTMDIENDKQQLDEKLKK; listed as Bos taurus)
plasma insulin concentration vs time 0 [1]: statistically significant increase in plasma insulin at 15 and 30 minutes post gavage compared to time 0
plasma Phe concentration [2]: causing no flux in plasma Phe concentration
change in AUC0-4 h for plasma Lys ([2]; doses of Table E33A): increased the change in AUC0-4 h for plasma Lys
pH Range where Protein is >80% detected as Soluble and A650 <1 OD: Low ([3]; lower pH of range): 6.6
pH Range where Protein is >80% detected as Soluble and A650 <1 OD: High ([3]; upper pH of range): 9.1
SGF Half-life (t½) [4]: 42 s
